In article PMC8986097, “SUMO-mediated recruitment allows timely function of the Yen1 nuclease in mitotic cells” (PLoS Genetics, 2022):
Residue numbers refer to the chain shown, from its start. In names and notes the source's numbering stands. One block for each binder: values may come before it.

Molecular target: GST-Smt3 (S. cerevisiae, UniProt Q12306 1-101 = SUMO)
Assay: cell-based or functional assay

GST-Smt3, sequence (Q12306 whole entry): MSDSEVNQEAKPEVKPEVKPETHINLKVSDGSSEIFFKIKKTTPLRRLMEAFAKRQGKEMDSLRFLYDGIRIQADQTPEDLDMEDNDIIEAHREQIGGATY

fraction of SUMOylated Yen1 recovered by denaturing Ni-NTA pull-down of 6xHis-Smt3 from cells grown in 0.3% MMS, relative to wild-type Yen1: 1%
B1: Yen1 SIM1-2ΔΔ (D635A D636A D637A V675A E677A), HA-tagged, purified (natural protein, S. cerevisiae, UniProt P40028 1-759, looked up)
chain: MGVSQIWEFLKPYLQDSRIPLRKFVIDFNKSQKRAPRIAIDAYGWLFECGFIQNIDISARSRSRSRSPTRSPRDSDIDSSQEYYGSRSYTTTGKAVINFISRLKELLSLNVEFLLVFDGVMKPSFKRKFNHEQNATTCDDEKEYYSSWEQHVKNHEVYGNCKGLLAPSDPEFISLVRKLLDLMNISYVIACGEGEAQCVWLQVSGAVDFILSNDSDTLVFGGEKILKNYSKFYDDFGPSSITSHSPSRHHDSKESFVTVIDLPKINKVAGKKFDRLSLLFFSVLLGADYNRGVKGLGKNKSLQLAQCEDPNFSMEFYDIFKDFNLEDLTSESLRKSRYRLFQKRLYLYCKDHSVELFGRNYPVLLNQGSFEGWPSTVAIMHYFHPIVQPYFDEEVLSDKYINMAGNGHYRNLNFNELKYFLQSLNLPQISSFDKWFHDSMHEMFLLREFLSIDESDNIGKGNMRITEEKIMNIDGGKFQIPCFKIRYTTFLPNIPISSQSPLKRSNSPSRSKSPTRRQMDIMEHPNSLWLPKYLIPQSHPLVIQYYETQQLIQKEKEKKGKKSNKSRLPQKNNLDEFLRKHTSPIKSIGKVGESRKEILEPVRKRLFVDTDEDTSLEEIPAPTRLTTVDEHSDNAAASLIFVDEITNSQSVLDSSPGKRIRDLTQDEQVDVWKDAIAISPIKKSRTTNAEKNPPESGLKSRSSITINARLQGTKMLPPNLTAPRLEREHSSVLDQLVTDAQDTVDRFVACDSDSSSTIE

fraction of SUMOylated Yen1 recovered by denaturing Ni-NTA pull-down of 6xHis-Smt3 from cells grown in 0.3% MMS, relative to wild-type Yen1: ~20%
B2: Yen1 SIM2Δ (V675A E677A), HA-tagged, purified (natural protein, S. cerevisiae, UniProt P40028 1-759, looked up)
chain: B1 chain with A635D, A636D, A637D

fraction of SUMOylated Yen1 recovered by denaturing Ni-NTA pull-down of 6xHis-Smt3 from cells grown in 0.3% MMS, relative to wild-type Yen1: 5%
B3: Yen1 SIM1Δ (D635A D636A D637A), HA-tagged, purified (natural protein, S. cerevisiae, UniProt P40028 1-759, looked up)
chain: B1 chain with A675V, A677E
